In US20140363434A1 (COMPLIX, published 2014):

Columns and labels:
[1] = target: T1, GST-tagged recombinant human MCL-1 (residues 172 to 327) (human, UniProt Q07820 172-327); test: ELISA: Alphabody (500 nM) captured by coated anti-V5 antibody; five-fold dilutions of GST-MCL-1 detected with anti-GST antibody-HRP; OD 492/630 nm
T1 construct: Produced in E. coli and purified by the GST tag; also called recombinant MCL-1
Experimental: (§1) Alphabody (500 nM) was captured by immobilized anti-V5 antibody (5 microg/ml) to a microtiterplate. Binding of five-fold dilutions of Glutathione S transferase (GST)-tagged recombinant BCL-2 family proteins MCL-1 (FIG. 26A), BCL-XL (FIG. 26B) and BCL-2a (FIG. 26C) was detected using a anti-GST antibody conjugated to Horse Radish Peroxidase. Plates were read at 492 nm and 630 nm.
(§2) Maxisorp Nunc plates were coated with 100 microl anti-V5 antibody (5 microg/ml) in carbonate buffer pH 9.6 overnight at 4° C. The next day, the plates were washed 3 times with Tris Buffered Saline containing 0.05% Tween 20 (TBST) and blocked with TBS containing 0.1% BSA and 0.5% gelatin for 2 h at 37° C. […] Plates were washed 10 times with TBST and five-fold dilutions of Glutathione S transferase (GST) tagged recombinant BCL-2 family proteins (MCL-1, BCL-XL and BCL-2a) were added and further incubated for 2 h at RT while shaking. Binding of GST-tagged recombinant BCL-2 family proteins was detected using an anti-GST antibody conjugated to Horse Radish Peroxidase. Signals were developed by reacting with ortho-phenylenediamine and the reaction was stopped with 4 M H₂SO₄ when the OD reached a value between 2 and 3.

[2] = target: T1, GST-tagged recombinant human MCL-1 …; test: ELISA: Alphabody (500 nM) captured by anti-V5 antibody, five-fold dilutions of GST-MCL-1, anti-GST-HRP detection; printed as 'binding affinity'
Experimental: as §1, §2

[3] = target: T2, GST-tagged recombinant human BCL-XL with a C-terminal deletion of 24 amino acids (human, UniProt Q07817 1-209); test: ELISA: Alphabody (500 nM) captured by coated anti-V5 antibody; five-fold dilutions of GST-BCL-XL detected with anti-GST antibody-HRP; OD 492/630 nm
T2 construct: Produced in E. coli and purified by the GST tag; not shown: Glutathione S Transferase (GST) tag at the N-terminus

[4] = target: T2, GST-tagged recombinant human BCL-XL …; test: ELISA: Alphabody (500 nM) captured by anti-V5 antibody, five-fold dilutions of GST-BCL-XL, anti-GST-HRP detection; printed as 'binding affinity'
Experimental: (§3) Alphabody (500 nM) was captured by immobilized anti-V5 antibody (5 microg/ml) to a microtiterplate. Binding of five-fold dilutions of Glutathione S transferase (GST)-tagged recombinant BCL-2 family proteins MCL-1, BCL-XL and BCL-2a was detected using a anti-GST antibody conjugated to Horse Radish Peroxidase. Plates were read at 492 nm and 630 nm.
as §2

[5] = target: T3, GST-tagged recombinant human BCL-2 isoform alpha (BCL-2a) with a C-terminal deletion of 32 amino acids (human, UniProt P10415 1-207); test: ELISA: Alphabody (500 nM) captured by anti-V5 antibody, five-fold dilutions of GST-BCL-2a, anti-GST-HRP detection; printed as 'binding affinity'
T3 construct: Produced in E. coli and purified by the GST tag; not shown: Glutathione S Transferase (GST) tag at the N-terminus

[6] = target: T1, GST-tagged recombinant human MCL-1 …; test: ELISA: Alphabody (500 nM) captured by coated anti-V5 antibody; five-fold dilutions of GST-tagged protein detected with anti-GST antibody-HRP; OD 492/630 nm
Experimental: as §3, §2

[7] = target: T2, GST-tagged recombinant human BCL-XL …; test: as above
Experimental: as §3, §2

[8] = target: T4, MCL-1 in MCL-1 transfected HEK cell lysate (Santa Cruz) (UniProt Q07820 1-350, limits assumed); test: dot blot: MCL-1 transfected HEK cell lysate spotted on nitrocellulose, incubated with Alphabody, detected with anti-His antibody-HRP
T4 construct: The target was spotted as a whole cell lysate on nitrocellulose, not as purified protein; also called MCL-1 cell lysate; Mcl-1 cell lysate
T4 sequence (Q07820 whole entry): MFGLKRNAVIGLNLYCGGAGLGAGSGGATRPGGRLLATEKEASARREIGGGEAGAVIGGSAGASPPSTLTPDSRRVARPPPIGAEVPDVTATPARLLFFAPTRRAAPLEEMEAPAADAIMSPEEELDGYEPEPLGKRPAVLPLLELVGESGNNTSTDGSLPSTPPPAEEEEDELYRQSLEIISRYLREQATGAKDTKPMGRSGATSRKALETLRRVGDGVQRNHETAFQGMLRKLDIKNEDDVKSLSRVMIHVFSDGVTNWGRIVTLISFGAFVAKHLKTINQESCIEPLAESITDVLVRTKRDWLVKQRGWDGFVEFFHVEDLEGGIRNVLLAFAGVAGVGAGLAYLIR

T1 sequence (Q07820 172-327 limits assumed): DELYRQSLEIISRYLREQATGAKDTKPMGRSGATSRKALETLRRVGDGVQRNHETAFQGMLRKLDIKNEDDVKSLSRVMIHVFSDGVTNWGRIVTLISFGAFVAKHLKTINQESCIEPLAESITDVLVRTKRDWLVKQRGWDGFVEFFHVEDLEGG
T2 sequence (Q07817 1-209, stated change not applied, form in doubt): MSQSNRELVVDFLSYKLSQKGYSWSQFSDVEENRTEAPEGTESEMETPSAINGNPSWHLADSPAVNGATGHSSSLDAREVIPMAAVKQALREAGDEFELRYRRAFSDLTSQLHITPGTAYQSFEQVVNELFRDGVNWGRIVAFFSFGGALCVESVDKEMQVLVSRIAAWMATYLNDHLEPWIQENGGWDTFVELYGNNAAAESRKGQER
T3 sequence (P10415 1-207, stated change not applied, form in doubt): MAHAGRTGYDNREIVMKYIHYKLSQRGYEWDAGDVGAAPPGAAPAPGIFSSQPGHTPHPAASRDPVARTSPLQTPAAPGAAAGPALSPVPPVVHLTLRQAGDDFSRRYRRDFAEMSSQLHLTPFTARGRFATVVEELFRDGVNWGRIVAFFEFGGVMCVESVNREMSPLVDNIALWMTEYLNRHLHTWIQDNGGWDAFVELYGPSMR

B1: AB1_A2aF_hiKR3-V5 (designed binder)
chain: MSIQQIQKQFKRIQKQIKRIEKQIKRMTGGSGGSGGMSIEEITKQIAAIQLRIVGDQVQIYAMTGGSGGGSGGGSGGGSGGSIEEIKKSIRAIQKEIKKIQKKIKKMTPHHHHHHHHHHGKPIPNPLLGLDST
notes: Cationized MCL-1 Alphabody with C-terminal His-tag and V5 tag
- EC50 (read off the curve) [1]: ~1 nM
- Kd [2]: 1 nM

B2: AB1_pan_hiKR3-V5 (designed binder)
chain: MSIEEIQKQFKRIQKQIKRIAKQIKRMTGGSGGSGGMSIEEIAAQIAAIQLRIIGDQFNIYYMTGSGGGGSGGSIEEIKKSIRAIQKEIKKIQKKIKKMTPHHHHHHHHHHGKPIPNPLLGLDST
notes: Cationized Alphabody with C-terminal His-tag and V5 tag
- EC50 (read off the curve) [1]: ~2 nM
- EC50 (read off the curve) [3]: ~4 nM
- Kd [2]: ~1.9 nM
- Kd [4]: ~4.5 nM
- Kd [5]: ~18.7 nM
- EC50 (read off the curve) [6]: ~2 nM
- EC50 (read off the curve) [7]: ~4 nM

B3: tat-013 Alphabody (designed binder)
chain: YGRKKRRQRRRMSIEEIQKQIAAIQKQIAAIQKQIYAMTGGSGGGSGGGSGGGSGMSIEEIQKQIAAIQKQIAAIQKQIYAMTGGSGGGSGGGSGGGSGMSIEEIQKQIAAIQKQIAAIQKQIYAMTP
notes: also called tat-tagged control Alphabody scAB013
- binding result [8]: no binding (tested: 10 uM)

B4: MB23_hiR-V5 (designed binder)
chain: MSIEQIQKEITTIQEVIAAIQKYIYTMTGGSGGSGGMSIQQIQAAIRRIQRAIRRIQRAIRRMTGSGGGGSGMSIEEIQKQIAAIQEQIVAIYKQIMAMASHHHHHHGKPIPNPLLGLDST
notes: Cationized Alphabody directed against IL-23, used as the negative control; also called control Alphabody MB23_hiR-V5; cationized MB23
- binding result [1]: no binding (tested: 200 nM)
